According to US20160311916A1 (ALLIGATOR BIOSCIENCE, published 2016):
Substitutions are numbered along the chain they refer to.

T1: CD40 cys1B mouse: Human CD40 with mouse module B of domain 1 (38-59) (human; mouse, UniProt P25942 21-277)
T1 construct: Human/mouse chimera on FreeStyle 293-F cells; Human flanks inferred from the printed mouse range
T1 chain: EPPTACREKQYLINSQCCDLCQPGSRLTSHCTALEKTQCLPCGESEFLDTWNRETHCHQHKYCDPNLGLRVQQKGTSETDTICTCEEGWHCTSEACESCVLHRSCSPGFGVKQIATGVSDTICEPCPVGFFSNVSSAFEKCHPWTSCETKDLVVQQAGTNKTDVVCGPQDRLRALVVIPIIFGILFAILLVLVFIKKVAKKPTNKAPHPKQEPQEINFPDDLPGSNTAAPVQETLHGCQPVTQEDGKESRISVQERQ

T2: CD40 cys2A mouse: Human CD40 with mouse module A of domain 2 (62-77) (human; mouse, UniProt P25942 21-277)
T2 construct: Human/mouse chimera on FreeStyle 293-F cells; Human flanks inferred from the printed mouse range
T2 chain: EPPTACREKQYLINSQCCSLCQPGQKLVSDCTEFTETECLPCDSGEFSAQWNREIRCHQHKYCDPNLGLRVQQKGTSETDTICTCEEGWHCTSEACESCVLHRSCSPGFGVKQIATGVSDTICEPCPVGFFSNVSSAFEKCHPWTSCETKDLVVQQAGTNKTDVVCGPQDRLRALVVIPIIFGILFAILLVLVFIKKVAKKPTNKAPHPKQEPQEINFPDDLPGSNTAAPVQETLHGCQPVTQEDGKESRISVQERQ

T3: CD40 cys3B mouse: Human CD40 with mouse module B of domain 3 (122-143) (human; mouse, UniProt P25942 21-277)
T3 construct: Human/mouse chimera on FreeStyle 293-F cells; Human flanks inferred from the printed mouse range
T3 chain: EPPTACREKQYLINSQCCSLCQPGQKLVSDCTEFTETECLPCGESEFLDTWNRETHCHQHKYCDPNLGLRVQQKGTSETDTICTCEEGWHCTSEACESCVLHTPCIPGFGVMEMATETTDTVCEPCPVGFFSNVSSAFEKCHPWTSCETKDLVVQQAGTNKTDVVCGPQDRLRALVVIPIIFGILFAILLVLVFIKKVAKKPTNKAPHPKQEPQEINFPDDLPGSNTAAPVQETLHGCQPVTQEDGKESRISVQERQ

B1: antibody 1150/1151 (antibody, V domains shown)
VH: EVQLLESGGGLVQPGGSLRLSCAASGFTFSSYAMSWVRQAPGKGLEWVSGIGGSSSYTSYADSVKGRFTISRDNSKNTLYLQMNSLRAEDTAVYYCARYYSYHMDYWGQGTLVTVSS
VL: DIQMTQSPSSLSASVGDHVTITCRASQSISSYLNWYQQKPGKAPKLLIYAASSLQSGVPSRFSGSGSGTDFTLTISSLQPEDFATYYCQQYGSAPPTFGQGTKLEIK
B2: antibody 1146/1147 (antibody, V domains shown)
VH: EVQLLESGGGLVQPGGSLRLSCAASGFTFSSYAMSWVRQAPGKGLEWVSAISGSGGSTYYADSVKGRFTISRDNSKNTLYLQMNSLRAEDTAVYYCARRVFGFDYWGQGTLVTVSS
VL: B1 VL with H18R, G92Y, S93Y, A94Y, P96F
notes: Re-cloned from scFv into full IgG format, made in 293 Freestyle cells
B3: antibody 1132/1133 (antibody, V domains shown)
VH: B1 VH with G53S, S54Y, S55G, S56G, Y57G, S59Y, Y100V, S101N, Y102F, H103G
VL: B1 VL with H18R, S93R, A94N
notes: as for B2
B4: antibody 1107/1108 (antibody, V domains shown)
VH: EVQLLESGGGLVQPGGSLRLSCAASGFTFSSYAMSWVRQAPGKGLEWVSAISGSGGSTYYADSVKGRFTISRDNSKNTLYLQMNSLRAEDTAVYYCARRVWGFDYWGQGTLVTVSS
VL: B1 VL with H18R, S93V, A94Y, P96F
notes: as for B2
B5: antibody 1148/1149 (antibody, V domains shown)
VH: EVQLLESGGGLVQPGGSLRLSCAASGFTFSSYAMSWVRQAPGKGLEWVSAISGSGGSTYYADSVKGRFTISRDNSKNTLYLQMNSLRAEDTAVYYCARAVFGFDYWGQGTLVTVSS
VL: B1 VL with H18R, Y91A, G92Y, S93Y, A94F, P96H
notes: as for B2
B6: antibody 1134/1135 (antibody, V domains shown)
VH: EVQLLESGGGLVQPGGSLRLSCAASGFTFSSYAMSWVRQAPGKGLEWVSSIYSGGGGTSYADSVKGRFTISRDNSKNTLYLQMNSLRAEDTAVYYCARGPAYSSFFDYWGQGTLVTVSS
VL: not shown
notes: as for B2
B7: antibody 1136/1137 (antibody, V domains shown)
VH: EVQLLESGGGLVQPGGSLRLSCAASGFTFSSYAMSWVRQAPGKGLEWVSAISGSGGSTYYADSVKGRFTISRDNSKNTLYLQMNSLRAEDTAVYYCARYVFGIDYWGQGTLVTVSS
VL: DIQMTQSPSSLSASVGDRVTITCRASQSISSYLNWYQQKPGKAPKLLIYAASSLQSGVPSRFSGSGSGTDFTLTISSLQPEDFATYYCQQAYYAGLFTFGQGTKLEIK
notes: as for B2

Assays:
[1] = target: T1, CD40 cys1B mouse: Human CD40 with mouse …; assay: flow cytometry on 293-F cells transfected with the chimera; MFI scored + or -
From the text: (§1) Genes of CD40 human/mouse chimeras were synthesized (GenScript). The different chimeras were designed by exchanging domains or modules of the human CD40 with corresponding mouse CD40 domains or modules. The chimeras were designed after evaluation of the human and mouse sequences and 3D analysis of human CD40. The constructs were cloned into pcDNA3.1 vector (Invitrogen) using the restriction sites for NotI and HindIII. The mouse/human chimeras were transiently transfected into FreeStyle 293-F cells (Invitrogen), incubated 48 hours in FreeStyle 293 expression medium (Invitrogen) 37C, 8% CO2, 135 rpm.
(§2) Cells were analyzed with FACS Verse (BD Biosciences). Binding to the different chimeric constructs were determined with MFI to be either positive (+) or negative (−).

[2] = target: T2, CD40 cys2A mouse: Human CD40 with mouse …; assay: as above
From the text: as §1, §2

[3] = target: T3, CD40 cys3B mouse: Human CD40 with mouse …; assay: as above
From the text: as §1, §2

[4] = target: T4, CD40hfc (R&Dsystems, USA) (human, UniProt P25942 21-193); assay: SPR Biacore 3000, CD40hfc immobilized on CM5, antibody as analyte, 1:1 Langmuir
T4 construct: Bought reagent, amine-coupled to a CM5 chip; not shown: Fc part of the bought fusion protein
Protocol: (§3) The affinity constants of purified antibodies were assessed by surface plasmon resonance using the Biacore 3000 instrument according to manufacturer's protocols. CD40hfc (R&Dsystems, USA) was immobilized to the BIAcore sensorchip, CM5, using conventional amine coupling. Association was followed for 3 minutes and dissociation for 12 minutes. Regeneration was performed twice using 50 mM NaOH for 30 seconds. The kinetic parameters and the affinity constants were calculated using BIAevaluation 4.1 software. The CD40 antibody clones were run over the sensor at a flow rate of 30 μl/min in HBS-P (GE, BR-1003-68) at concentration ranges between 1-100 or 1-300 nM and analyzed using 1:1 Langmuir with drifting baseline.

[5] = target: T5, Fc-fused CD40 (Ancell, #504-820) (human, UniProt P25942 21-193); assay: CD40 binding ELISA (summary table, Example 3)
T5 construct: Bought reagent; not shown: Fc part of the bought fusion protein
Protocol: (§4) Purified full IgG molecules were analysed with ELISA. High binding flat bottom LIA plates (Greiner #655074) were coated with Fc-fused CD40 (Ancell, #504-820) at 0.05 μg/ml, and milk powder were used at 3% for blocking and at 1% for dilution. The antibodies to be tested were added in serial dilutions starting at 50 μg/ml and detection was carried out using HRP conjugated goat anti human Ig-Fc (Jackson ImmunoResearch, #109-035-098) and Super Signal Pico Chemiluminescent (ThermoScientific, #37069) was used as substrate.

murine CD40 = target: T6, murine CD40 (mouse, UniProt P27512 20-193, limits assumed); assay: chimeric domain mapping, flow cytometry
T6 construct: How murine CD40 was presented in the assay is not described; also called mouse CD40
From the text: as §1, §2

human CD40 [6] = target: T7, human CD40 (human, UniProt P25942 21-277); assay: cell-based or functional assay
[7] = target: T5, Fc-fused CD40 (Ancell, #504-820); assay: ELISA, coated Fc-fused CD40, full IgG
Protocol: as §4

human CD40 [8] = target: T7, human CD40; assay: cell-based or functional assay; remark: listed apart in the source
[9] = target: T4, CD40hfc (R&Dsystems, USA); assay: SPR Biacore 3000, CD40hfc immobilized (summary table, Example 6)
Protocol: as §3

T6 sequence (P27512 20-193 limits assumed): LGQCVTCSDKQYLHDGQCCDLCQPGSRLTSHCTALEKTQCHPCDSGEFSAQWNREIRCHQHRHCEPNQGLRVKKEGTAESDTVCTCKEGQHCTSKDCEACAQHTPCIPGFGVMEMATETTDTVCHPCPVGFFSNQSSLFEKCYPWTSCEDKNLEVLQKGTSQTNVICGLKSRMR

Row | Binder | binding result [1] | binding result [2] | binding result [3] | Kd [4] [nM] | koff [4] [s⁻¹] | kon [4] [M⁻¹ s⁻¹] | EC50 [5] [µg/mL] | binding result (murine CD40) | B cell proliferation (see Example 3) (human CD40 [6]) | DC activation (index: IL-12p40 with antibody divided by IL-12p40 with isotype control) (human CD40 [6]) [index] | EC50 [7] [µg/mL] | Potency B cell proliferation (EC50) (human CD40 [8]) [µg/mL] | Kd [9] [nM] | koff [9] [s⁻¹] | kon [9] [M⁻¹ s⁻¹] | B cell proliferation (human CD40 [6])
1 | B1 | no binding | binds | binds | 1.5 | 0.0034 | 2.2e+06 | 0.041 | no binding | 0.9 | 7.8 | 0.041 | 0.9 | 1.5 | 0.0034 | 2.2e+06 | –
2 | B2 | – | – | – | – | – | – | 0.58 | – | 3.6 | – | 0.58 | 3.6 | – | – | – | –
3 | B3 | no binding | binds | binds | 2.4 | 0.0081 | 3.4e+06 | 0.28 | no binding | 2.2 | 10.8 | 0.28 | 2.2 | 2.4 | 0.0081 | 3.4e+06 | –
4 | B4 | binds | no binding | binds | 1.3 | 0.0013 | 1e+06 | 0.034 | no binding | 0.7 | 22.3 | 0.034 | 0.7 | 1.3 | 0.0013 | 1e+06 | –
5 | B5 | – | – | – | – | – | – | 2.2 | – | 2.3 | – | 2.2 | 2.3 | – | – | – | –
6 | B6 | – | – | – | 3.4 | 0.0014 | 400000 | 0.025 | – | – | – | 0.025 | 1 | 3.4 | 0.0014 | 400000 | 1
7 | B7 | – | – | – | 11 | 0.0095 | 870000 | 1.4 | – | – | – | 1.4 | 1 | 11 | 0.0095 | 900000 | 1
